Test: soluble fraction after stress (log2 fold change); higher = more stays soluble; pooled small domains, quantitative proteomics
Conditions: stress: 50 degC
Summary of the method: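 Custom libraries of small protein domains were pooled and measured in a high-throughput format, with quantitative proteomics as the read-out. Each library was stressed at 50°C. The value is the log2 fold change in the amount of each protein that stays soluble after stress, used as a measure of aggregation propensity; higher values mean more of the protein stays soluble.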

Sequence	soluble fraction (log2)
HMQQPIPGEAYLTRRPGSDHFQIAFTIDGHRVRESSGTSDKVAAAALAQKRYEEVWREIKLGEK	0.2
HMNEKFNVYPIPVYNNLNITGLSKPVTYLISSIDGKTIKNGVFQESIDVSDLKSGLYFLQVETKDPVKFIK	-0.658
HMEDKQRRMGELVALLNRAAYAYYTKDEPIMADVQYDRLYDELLSLEKETGVQMADSPTHRV	-0.173
HMYMWQVEDLIRANGLDIERIKDSIIRPYELDEERKRELTQWYEDLIDMMRREGVAQSGHLQIN	-2.45
HMASIEPLKTSIRIIWYINGEKDSETLLNTPPTAANKANAQKIADMVEQQIQMGIFNRDAVFPSSPKRQ	-1.87
HMQNEKLSYFVTETIVTERADLFITKKFPQFSRSQIQKLINSGNITINSNPIKASTEIINKDNIEITIPV	-1.14
HMARTTIATPWDKINDLLQGGLGNGDFGLIFGNPGGGKSWSLVALGGFAVKLGYNVIHYTLE	-0.054
HMKKALTAEQEARVRELYFRGINYYSANRYQDAIAEWRKVLAIDPNHEKAKNNIRQTLILLK	-0.257
HMAFEDYAGEYRSAADFAESLHEDTGTEIPESLRYYIDWQALARDMALNGEIMVFQTGFDEVHIFWS	-0.517
HMQEGPGLVPDFRGQTMREVLRGGQSLGVRVAVDGTGLAVAQTPEPGSPLNKVSQVTVSFRPP	0.0873
HMGRKRLADYGLNDTEQKIVRKIADGLSNREIAQALYLSEGTVKNYITDILGKLELRDRTQIAIFYLREIG	-0.0293
HMKVSAEEQNILDALQAAGGYLPFHDKSNPEEIYEAFGISKKTFKMIIGSLYKQQKINLTQTGIQLII	-0.0574
HMAEPRVQEVYFEFDGKQVEAGQVVSLIEQAYKNEGHQIGRIKDLKVYINSEEGKAYYVINGDDGEGKYIE	0.0517
HMILPKFNQLLGQMGENIKLARKRRKLTAVQVSERAGIARSTLYLIEKGDASVSLGAYFNVLRVLG	-1.46
HMIMGTIEKRGPFSFRIGVQVRLPDGSWEWIRDTIHVSPDLSARAARKQAEMALARLEADVYEGKRKPD	-0.878
HMNEVIIKNWSNAVGRNIKIKTKRGRPIFGRLLAINDQQLTIASKYMRGNATITVAREDVVSMSVS	-0.516
HMTTKGGLVRDTVLNEFRDSEFTRREVELVLNGVASERTIRGALSEMVERGELTQVNFGISTRYRLNQ	-0.385
HMEVPTGNHIRRWRKSLDITQVKLSSLSGVAQSIIAKIENETVDPRVSTLRKLVEALSRFENP	-1.89
HMLPDDDMLLNILTKLLIDKQFVINSHEIFDFIIKRANRSYEEMFILVNKLDQLSLEKKRQLTIPLIKEI	-0.652

Sequence	soluble fraction (log2)
HMVLSTRERMSNILATLKGGHFVNFSDLFTPEEGRLGVVVTFLAMLELIKESLLDIVQHEVLGPIHVKARV	-0.0744
HMAVVIPDVKGMTIEEAAPFLAEKGIRYNIIDSVFSKDVDPGAIVEIVPTPGSKVKEGRIVFVTINAK	-0.538
HMTTLLNHLKGTRLEAGLSQQALARLAGISRQAYSALESGSSNPSTEVALRLARALKTSVDHLFSLPE	-0.989
HMNQIATSTQAIITTLSFLNTSSIFKLPVGDTASRPTGVSPGTLRFNSQEDSAEIYKADDGTGSAGWTEVA	0.0743
HMGLLGTDISAETMIGYFKKIDLGFDEETQEVIVPSWRQDLLRDADIAEEVARFYGYDNIPTTLPSGEST	-0.122
HMKVDRLISIVLVLLDKNRISAQELADMFEVSLRTIYRDIDAIELAGIPIRSTSGVGGGFEIMPNY	-0.577
HMYKNAFITYDNNLYYLGSDSKMAIGWQSIGGNTYYFRNWGGMITGKQVIDGKTYVFDEDGKLVQSPD	-1.12
HMKTLSKEDIGFLSDEAVGEMRKAVANGEMLELRALIDQVGEKNPIVAEKLLTLVKQYDYENLNRVLE	0.0931
HMAVVQMVDRPGGLDELLKDVVRAGVNFANAYGRTASDGNSAFFVIDIQDIPGARQKLADVGLQILADEAV	-0.192
HMQQNDMTELRALAEKIISENDSVINDYKSGQGSALQFLIGQAMKETKGSANPQVISEIFTDLL	-0.225
HMAPFSGVEPREWDSLVERGRQSGEVHAEDVTHVLRHVELTGDVLTDVQSKMAEHGITIDDA	0.206
HMQLTDSDFTRLYTYVKNSYGIDLSKKKQLISSRLTNMLIQQGYRDFTQYTDEIISGKNPEMVSAMLNRLT	-0.232
HMDKLNKELVSRMMDDAAWKELSKDFPWTEQLLEKYMNYVDWKEISRNYNVVWTKSLLEKFKHRLDWHE	-1.44
HMGGSLADAKRFLADLLADGPVPAKGVRADADGAGHTWPTIRRAQKALGIEATKTGMKGGWVWALPR	-0.034
HMGGSDIYLGAFNIPQGSVRVTSGGQALTEGKDFTIDYNLGSVKIINQAILNSGIPVSVSYENNAG	0.123
HMNATQLSNTQKQIRTQLLERLSNNPLTVKQLADRMFVPIDTILKEITALIQEQKIIEDKGGKLQIN	0.0217
HMNELGSLIKRKREELGLSQEELARILGYKHKSSINKIELGLADVPRTKVPAFAKALGMTPVEFS	0.0771
HMEDISQHAVKKLVQEMVMAEDPRDPLSDQQIAENLSRLGLKVARRTVAKYRAMLGIQPSNRRRK	-0.0553
HMSRQREWIYDYIQSHPDRHMSVEEIYEGLKAENREVSVATVYRNLKILQDENRIASLMLESGKQVFDK	-0.371

— the domain aggregation screens of Martell et al. (2025)
